Source: paper PMC3064766 (Nucleic Acids Research, 2010)

Columns and labels:
[1] = molecular target: myc-tagged Mot1p (S. cerevisiae, UniProt P32333 1-1867); assay: co-IP
[2] = molecular target: T1, myc-tagged Cbp80p (S. cerevisiae, UniProt P34160 1-861); assay: pull-down
T1 sequence (looked up): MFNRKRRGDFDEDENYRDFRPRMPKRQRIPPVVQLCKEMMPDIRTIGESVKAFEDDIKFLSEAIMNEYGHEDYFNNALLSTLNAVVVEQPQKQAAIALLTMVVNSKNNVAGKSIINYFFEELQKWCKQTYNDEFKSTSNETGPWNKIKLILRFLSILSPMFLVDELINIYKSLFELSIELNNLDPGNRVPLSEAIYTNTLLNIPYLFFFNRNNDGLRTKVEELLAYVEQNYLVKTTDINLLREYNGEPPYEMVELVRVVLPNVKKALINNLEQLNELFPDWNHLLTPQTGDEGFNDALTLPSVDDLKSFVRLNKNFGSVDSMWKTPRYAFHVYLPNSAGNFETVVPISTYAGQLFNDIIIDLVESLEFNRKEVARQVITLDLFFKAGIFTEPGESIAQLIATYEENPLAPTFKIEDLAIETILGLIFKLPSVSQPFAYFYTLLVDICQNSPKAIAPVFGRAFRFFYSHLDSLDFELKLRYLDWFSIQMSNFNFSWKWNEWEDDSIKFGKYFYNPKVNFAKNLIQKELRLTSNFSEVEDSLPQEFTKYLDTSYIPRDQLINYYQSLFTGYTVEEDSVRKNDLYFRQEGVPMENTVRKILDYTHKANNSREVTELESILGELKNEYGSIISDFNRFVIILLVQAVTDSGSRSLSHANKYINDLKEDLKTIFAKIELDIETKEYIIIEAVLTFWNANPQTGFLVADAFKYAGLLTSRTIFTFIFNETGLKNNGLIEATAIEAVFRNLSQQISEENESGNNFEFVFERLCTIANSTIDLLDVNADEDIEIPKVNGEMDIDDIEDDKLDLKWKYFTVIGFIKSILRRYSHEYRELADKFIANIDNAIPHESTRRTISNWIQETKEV

Chain of myc-tagged Mot1p (P32333 whole entry): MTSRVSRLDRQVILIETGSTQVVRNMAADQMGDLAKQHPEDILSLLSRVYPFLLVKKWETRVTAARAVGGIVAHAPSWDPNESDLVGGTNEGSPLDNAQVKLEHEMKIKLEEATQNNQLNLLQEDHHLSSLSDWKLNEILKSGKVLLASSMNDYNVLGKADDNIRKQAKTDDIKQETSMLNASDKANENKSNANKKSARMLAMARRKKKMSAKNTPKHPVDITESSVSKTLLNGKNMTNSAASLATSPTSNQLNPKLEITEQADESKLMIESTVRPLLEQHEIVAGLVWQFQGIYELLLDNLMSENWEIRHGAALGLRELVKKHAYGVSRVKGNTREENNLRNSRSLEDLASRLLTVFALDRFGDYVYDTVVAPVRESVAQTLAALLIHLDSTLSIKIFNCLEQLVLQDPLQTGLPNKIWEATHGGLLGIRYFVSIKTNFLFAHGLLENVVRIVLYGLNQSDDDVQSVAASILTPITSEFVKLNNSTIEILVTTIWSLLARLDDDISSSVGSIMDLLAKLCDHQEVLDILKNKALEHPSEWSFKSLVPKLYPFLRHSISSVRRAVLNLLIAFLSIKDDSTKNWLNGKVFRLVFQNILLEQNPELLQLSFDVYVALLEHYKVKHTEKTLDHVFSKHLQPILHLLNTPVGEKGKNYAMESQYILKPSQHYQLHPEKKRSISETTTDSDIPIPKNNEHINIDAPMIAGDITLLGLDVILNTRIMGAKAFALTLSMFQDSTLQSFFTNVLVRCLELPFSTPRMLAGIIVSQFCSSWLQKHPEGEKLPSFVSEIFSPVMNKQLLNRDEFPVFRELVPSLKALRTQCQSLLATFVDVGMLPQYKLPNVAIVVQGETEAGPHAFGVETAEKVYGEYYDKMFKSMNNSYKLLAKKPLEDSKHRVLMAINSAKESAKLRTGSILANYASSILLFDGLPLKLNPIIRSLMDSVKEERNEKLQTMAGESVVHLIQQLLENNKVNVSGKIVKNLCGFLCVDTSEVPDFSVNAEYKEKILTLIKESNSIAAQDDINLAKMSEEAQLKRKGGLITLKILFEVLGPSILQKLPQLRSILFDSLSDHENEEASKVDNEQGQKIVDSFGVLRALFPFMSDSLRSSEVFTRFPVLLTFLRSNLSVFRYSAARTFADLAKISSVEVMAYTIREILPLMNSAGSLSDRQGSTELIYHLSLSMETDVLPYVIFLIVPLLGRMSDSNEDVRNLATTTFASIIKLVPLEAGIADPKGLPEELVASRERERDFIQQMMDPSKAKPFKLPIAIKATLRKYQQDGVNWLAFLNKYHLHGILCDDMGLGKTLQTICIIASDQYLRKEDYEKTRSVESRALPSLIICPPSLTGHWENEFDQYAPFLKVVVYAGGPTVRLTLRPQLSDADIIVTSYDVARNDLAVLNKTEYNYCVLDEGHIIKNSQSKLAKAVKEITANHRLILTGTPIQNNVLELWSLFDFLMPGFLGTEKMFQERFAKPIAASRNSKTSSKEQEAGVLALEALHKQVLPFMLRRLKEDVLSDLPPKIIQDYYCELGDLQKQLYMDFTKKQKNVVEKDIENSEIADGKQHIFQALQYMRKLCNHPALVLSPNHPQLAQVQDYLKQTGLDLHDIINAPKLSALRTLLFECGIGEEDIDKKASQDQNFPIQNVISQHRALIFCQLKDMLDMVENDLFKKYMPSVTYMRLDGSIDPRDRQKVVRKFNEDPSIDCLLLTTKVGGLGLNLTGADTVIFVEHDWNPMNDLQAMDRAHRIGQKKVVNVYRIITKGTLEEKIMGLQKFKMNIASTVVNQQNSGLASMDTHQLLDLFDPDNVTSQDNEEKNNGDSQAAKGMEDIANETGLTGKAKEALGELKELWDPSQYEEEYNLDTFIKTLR

B1: HA-tagged Cbp20p (natural protein, S. cerevisiae, UniProt Q08920 1-208, looked up)
chain: MSLEEFDEVKYDHSTKRLDTPSRYLLRKARRNPNGLQELRESMKSSTIYVGNLSFYTSEEQIYELFSKCGTIKRIIMGLDRFKFTPCGFCFIIYSCPDEALNALKYLSDTKLDEKTITIDLDPGFEDGRQFGRGKSGGQVSDELRFDFDASRGGFAIPFAERVGVPHSRFDNSSSQSNTNNYIPPPDAMGTFRPGFDEEREDDNYVPQ
- binding result [1]: binds
- binding result [2]: binds
